In patent US20250034275A1 (CHIA TAI TIANQING PHARMACEUTICAL GROUP, published 2025):

T1: human Trop-2 (on the surface of human cell lines) (human, UniProt P09758 27-323)
T1 construct: Endogenous Trop-2 on NCI-H322, Capan-1, PC-3, HUVEC, OVCAR-3, HCC38 and HCC1806 cells; also called TACSTD2
T1 sequence: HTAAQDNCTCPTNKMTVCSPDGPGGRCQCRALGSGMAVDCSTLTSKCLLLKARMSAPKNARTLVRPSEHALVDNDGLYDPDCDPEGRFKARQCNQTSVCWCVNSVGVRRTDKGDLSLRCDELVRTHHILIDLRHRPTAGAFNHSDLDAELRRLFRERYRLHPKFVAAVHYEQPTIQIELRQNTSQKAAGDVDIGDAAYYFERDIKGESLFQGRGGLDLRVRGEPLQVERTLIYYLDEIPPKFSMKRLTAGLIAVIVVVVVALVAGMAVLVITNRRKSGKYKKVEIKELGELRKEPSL

T2: human Trop-2-His (human, UniProt P09758 27-274, limits assumed)
T2 construct: by analogy with the macaque construct it is probably the extracellular domain with a His tag; also called Trop-2-His protein
T2 sequence: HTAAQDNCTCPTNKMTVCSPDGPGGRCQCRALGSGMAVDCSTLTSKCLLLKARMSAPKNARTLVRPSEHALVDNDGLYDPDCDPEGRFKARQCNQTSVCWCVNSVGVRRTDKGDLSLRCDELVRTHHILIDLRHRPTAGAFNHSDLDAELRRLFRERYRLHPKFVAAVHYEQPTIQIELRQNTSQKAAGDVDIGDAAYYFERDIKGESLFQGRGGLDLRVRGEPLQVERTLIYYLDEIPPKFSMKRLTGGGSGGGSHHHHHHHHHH

T3: Macaque Trop-2-His (macaque, UniProt P09758 27-274 (human entry))
T3 construct: Extracellular domain of macaque Trop-2 recombinantly linked to His; also called monkey Trop-2-His protein; monkey Trop-2
T3 chain: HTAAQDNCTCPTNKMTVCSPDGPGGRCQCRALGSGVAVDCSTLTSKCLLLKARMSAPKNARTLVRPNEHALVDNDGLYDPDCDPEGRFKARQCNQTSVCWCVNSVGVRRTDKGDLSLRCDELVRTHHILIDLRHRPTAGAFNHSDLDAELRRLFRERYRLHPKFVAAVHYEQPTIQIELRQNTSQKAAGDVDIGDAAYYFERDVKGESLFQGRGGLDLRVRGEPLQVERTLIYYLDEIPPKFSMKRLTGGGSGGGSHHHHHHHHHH

B1: hz-Ab2-2.4 (antibody, human IgG1, kappa, V domains shown)
VH: QVQLQESGPGLVKPSETLSLTCTVSGFSLTYYGIDWIRQPPGKGLEWIGVIWGSGNTKYNSALKSRVTISKDNSKSQVYLKLSSVTAADTAVYYCARFYEGFAYWGQGTLVTVSS
VL: DIQMTQSPSSLSASVGDRVTITCRASQDINSYLSWFQQKPGKAPKTLIYRANRLVEGVPSRFSGSGSGQDFTLTISSLQPEDFATYYCLQYDEYPLTFGQGTKVEIKR
notes: Humanized antibody
B2: hz-Ab21-1.1 (antibody, human IgG1, kappa, V domains shown)
VH: EVQLVESGGGLVKPGGSLRLSCAASGFTLRNYGVHWVRQAPGKGLEWVGVIWSSGTTDYAAPVKGRFTISKDNSKNTLYLQMNSLKTEDTAVYYCTRDGDYDYYTMDYWGQGTLVTVSS
VL: EIVLTQSPATLSLSPGERATLSCRASKSVSTSAYSYIHWYQQKPGQAPRLLIYLTSNLESGIPARFSGSGSGTDFTLTISSLEPEDFAVYYCQHSRELPYTFGQGTKVEIKR
notes: Humanized antibody
B3: hz-Ab21-1.2 (antibody, human IgG1, kappa, V domains shown)
VH: EVQLVESGGGLVKPGGSLRLSCAASGFTLRNYGVHWVRQAPGKGLEWVGVIWSSGTTDYNAAFISRFTISKDNSKNTLYLQMNSLKTEDTAVYYCTRDGDYDYYTMDYWGQGTLVTVSS
VL: EIVLTQSPATLSLSPGERATLSCRASKSVSTSAYSYIHWYQQKPGQAPRLLIYLTSNLESGIPARFSGSGSGTDFTLTISSLEPEDFAVYYCQHSRELPYTFGQGTKVEIKR
notes: Humanized antibody
B4: hz-Ab21-2.1 (antibody, human IgG1, kappa, V domains shown)
VH: EVQLVESGGGLVKPGGSLRLSCAASGFTLRNYGVHWVRQAPGKGLEWVGVIWSSGTTDYAAPVKGRFTISKDNSKNTLYLQMNSLKTEDTAVYYCTRDGDYDYYTMDYWGQGTLVTVSS
VL: EIVLTQSPATLSLSPGERATLSCRASKSVSTSAYSYIHWYQQKPGQPPRLLIYLTSNLESGIPARFSGSGSGTDFTLTISSLEPEDFAVYYCQHSRELPYTFGQGTKVEIKR
notes: Humanized antibody
B5: ch-Ab21 (antibody, human IgG1, kappa, V domains shown)
VH: EVQLKQSGPGLVQPSQSLSITCTVSGFSLRNYGVHWVRQSPGKGLEWLGVIWSSGTTDYNAAFISRLSITKDNSKSQVFFKMNSLQVDDTAIYNCARDGDYDYYTMDYWGQGTSVTVSS
VL: AIVLTQSPASLAVSLGQRATISCRASKSVSTSAYSYIHWYQQKPGQPPKLLIYLTSNLESGVPARFSGSGSGTDFTLNIHPVEEEDAATYYCQHSRELPYTFGGGTKLEIKR
notes: Mouse VH/VL on human IgG1 and human kappa constant regions; also called chimeric antibody of Ab21
B6: ch-Ab35 (antibody, human IgG1, kappa, V domains shown)
VH: EVQLQQSGPDLVRPGASVKLSCKASGYTFTSSDINWVKQRPGQGLEWIGWIYPRDGSKKYNEKFKGKATLTVDTSSSTAYMEVHSLTSEDSAVYFCATRFATVVSNYGLDPWGQGTSVTVSS
VL: AIVLTQSPAIMSASPGEKVTMTCSASSSVNYIYWYQRKPGSSPRLLIYDTSNLASGVPVRFSGSGSGTSYSLTISRMEAEDAATYYCQQWNSYPLTFGAGTKLELKR
notes: Mouse VH/VL on human IgG1 and human kappa constant regions; also called chimeric antibody of Ab35

Assays:
[1] = target: T1, human Trop-2 (on the surface of human …); assay: flow cytometry, HCC1806 cells
Description: (§1) Tumor cells expressing Trop-2 were prepared into a cell suspension (0.5-1×10⁶ cells/mL) using the FACS buffer (Miltenyi Biotec, 130-091-221), and the cell suspension was added to a 96-well V-bottom plate at 100 μL/well. After centrifugation and removal of the supernatant, the test antibodies diluted with the FACS buffer to different concentrations (0.006 nM-100 nM) were each added at 50 μL/well. The mixture was incubated in the dark in a 4° C. refrigerator for 1 h. The plate was then washed 3 times with the FACS buffer by centrifugation at 300 g, and Alexa Fluor 488 goat anti-human IgG (H+L) (Bio-legend, 409304, 1:500 dilution) at working concentration was added. The mixture was incubated in the dark in a 4° C. refrigerator for 40 min. The plate was then washed 3 times with the FACS buffer by centrifugation at 300 g, the geometric mean fluorescence intensity (MFI) was measured on a Sartorius iQue3 flow cytometer, and the binding EC₅₀ values of the antibodies for tumor cells with different Trop-2 expression levels were calculated

[2] = target: T1, human Trop-2 (on the surface of human …); assay: cell-based or functional assay
human Trop-2-His [3] = target: T2, human Trop-2-His; assay: SPR (Biacore 8K), antibody captured, Trop-2-His as analyte
Description: The affinity of antibodies for human Trop-2-His was detected in the form of antibody capturing. The antibody was affinity-captured by a CM5 (Cat. #29149603, GE) biosensor chip conjugated with an anti-human IgG antibody (from human antibody capture kit, Cat. #29234600, GE), then the antigen human Trop-2-His flowed on the surface of the chip, and a Biacore 8K instrument was used for detecting reaction signals in real time to obtain association and dissociation curves. After dissociation was completed for each assay cycle, the chip was washed clean and regenerated with a regeneration buffer, 3M MgCl₂ (from human antibody capture kit, Cat. #29234600, GE). The association and dissociation curves were collected by Biacore 8K Control Software 3.0 in real time, and the data were analyzed by Biacore Insight Evaluation Software 3.0. The data were fitted using a Langmuir 1:1 model after double subtraction (namely, in each cycle, the contrast channel signal was subtracted from the experimental channel signal, and the sample signal was subtracted from the blank signal), and the association rate constant Ka, the dissociation rate constant Kd, and the equilibrium constant KD were calculated.

human Trop-2-His [4] = target: T2, human Trop-2-His; assay: ELISA, plate-coated human Trop-2-His
Description: (§2) After the liquid was discarded, 2% BSA (SIGMA, B2064-100G) diluted with PBS was added at 300 μL/well for blocking, and the mixture was incubated at 37° C. for 2 h. After the blocking was completed, the blocking buffer was discarded, the plate was washed 3 times with PBST buffer (pH 7.4 PBS containing 0.1% tween-20), the antibody solution diluted in a gradient was added at 100 μL/well, and the mixture was incubated at 37° C. for 1 h. After the incubation was completed, the plate was washed 3 times with PBST, the goat anti-human IgG (H+L) (JacksonImmunoResearch, 109-035-098, 1:5000 dilution) was added at 100 μL/well, and the mixture was incubated at 37° C. for 1 h. After the plate was washed 3 times with PBST, a TMB chromogenic substrate (TIANGEN, PA107-01) was added at 100 μL/well. The mixture was incubated at room temperature for 10-15 min, and then 1 M H₂SO₄ was added at 50 μL/well to terminate the reaction. The absorbance values at 450 nm were taken using a microplate reader. The binding curves of antibodies for antigen were fitted using software, and the EC₅₀ values were calculated.

Macaque Trop-2-His = target: T3, Macaque Trop-2-His; assay: ELISA, plate-coated macaque Trop-2-His
Description: as §2, with “times with the PBST buffer” for “times with PBST buffer”

[5] = target: T1, human Trop-2 (on the surface of human …); assay: flow cytometry, HCC38 cells
Description: as §1

[6] = target: T1, human Trop-2 (on the surface of human …); assay: cell-based or functional assay; remark: listed apart in the source
[7] = target: T1, human Trop-2 (on the surface of human …); assay: flow cytometry, OVCAR-3 cells
Description: as §1

| Binder | EC50 [1] | ADCC, PBMC killing (LDH), H322, EC50 [2] | ADCC, PBMC killing (LDH), H322, Maximum killing (%) [2] | ADCC, PBMC killing (LDH), HCC1806, EC50 [2] | ADCC, PBMC killing (LDH), HCC1806, Maximum killing (%) [2] | Kd (human Trop-2-His [3]) | koff (human Trop-2-His [3]) | kon (human Trop-2-His [3]) | EC50 (human Trop-2-His [4]) | EC50 (Macaque Trop-2-His) | EC50 [5] | ADCC reporter (Jurkat-CD16a v158-NFAT-luciferase), target cell H322, EC50 [6] | ADCC reporter (Jurkat-CD16a v158-NFAT-luciferase), target cell HCC1806, EC50 [6] | EC50 [7] |
| --- | --- | --- | --- | --- | --- | --- | --- | --- | --- | --- | --- | --- | --- | --- |
| B1 | 1.23 nM | 0.07 nM | 46.7% | 0.15 nM | 33.3% | 11.6 nM | 0.00483 s⁻¹ | 415000 M⁻¹ s⁻¹ | 0.1 nM | 0.07 nM | 0.45 nM | 0.66 nM | 1.51 nM |  |
| B2 | 0.64 nM |  |  |  |  | 1.2 nM | 0.000514 s⁻¹ | 429000 M⁻¹ s⁻¹ | 0.162 nM | 0.098 nM | 0.55 nM |  |  | 0.62 nM |
| B3 | 1.23 nM |  |  |  |  | 0.973 nM | 0.000438 s⁻¹ | 450000 M⁻¹ s⁻¹ | 0.248 nM | 0.086 nM | 0.66 nM |  |  | 0.67 nM |
| B4 | 0.63 nM | 0.02 nM | 44.5% | 0.12 nM | 32.2% | 1.38 nM | 0.000559 s⁻¹ | 404000 M⁻¹ s⁻¹ | 0.214 nM | 0.064 nM | 0.64 nM | 0.21 nM | 0.39 nM | 0.68 nM |
| B5 | 0.65 nM | 0.13 nM | 54% | 0.03 nM | 40.3% |  |  |  | 0.165 nM | 0.093 nM | 0.64 nM | 0.04 nM | 0.08 nM | 1.02 nM |
| B6 | 0.38 nM | 0.01 nM | 51.9% | 0.02 nM | 38% |  |  |  | 0.043 nM | 0.048 nM | 0.45 nM | 0.02 nM | 0.04 nM | 0.37 nM |
